Tested on: T1, Leupeptin A (N-Acetyl-L-leucyl-L-leucyl-L-argininal)
T1 sequence: LLR

Plu4509 (hypothetical protein / candidate protease from P. luminescens TTO1), purified as a His6x-tagged variant
production of metabolites 10 and 11 (in vitro enzyme assay, end point analysis; 1 h, 35 C; LC-MS): addition of enzyme indeed significantly enhanced production of 10 and 11 | production of metabolites 10 and 11 in E. coli expressing plu4509, fed leupeptin A, versus vector control: E. coli control cultures were capable of generating both metabolites 10 and 11 with plu4509 providing an enhancement in production over controls

Source: patent publication US20240294581
